Assay [1] has as its target Biotinylated murine soluble TWEAK (amino acids 81-225 of SEQ ID NO: 61) (murine) (UniProt O54907). The assay is described as follows: Biacore SPR, biotinylated murine soluble TWEAK on SA sensor, antibody as analyte, 25 C. A general note: In SPR one partner is held on a chip, and binding of the other changes the refractive index at the surface.
Assay [2] has as its target Mouse soluble TWEAK (mouse) (UniProt O54907). Put plainly: competition ELISA: antibody pre-incubated with mouse soluble TWEAK, binding to coated mouse Fn14:Fc. A general note: ELISA stands for enzyme-linked immunosorbent assay.
The target in assay [3] is Biotinylated murine soluble TWEAK (amino acids 81-225 of SEQ ID NO: 61) (murine) (UniProt O54907). Put plainly: Biacore SPR, biotinylated murine soluble TWEAK on SA sensor, antibody as analyte, 37 C.
Assay [4] deals with T1, Biotinylated human soluble TWEAK (amino acids 99-249 of SEQ ID NO: 60) (human, UniProt O43508 99-249, biotinylated (sites not given)).
T1 construct: Immobilised on the streptavidin sensor in the Biacore half-life assay; also called Human TWEAK; soluble human TWEAK
T1 sequence: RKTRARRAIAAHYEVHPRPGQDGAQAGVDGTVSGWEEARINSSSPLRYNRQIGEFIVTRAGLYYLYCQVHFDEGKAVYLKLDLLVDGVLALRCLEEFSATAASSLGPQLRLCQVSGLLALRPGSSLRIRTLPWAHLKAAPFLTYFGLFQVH
The assay is described as follows: Biacore SPR, biotinylated human soluble TWEAK on SA sensor, antibody as analyte, 25 C. The method, then:
A Biacore 2000 instrument was used with a Biacore streptavidin coated sensor mounted into the system. The system buffer HBS-ET (10 mM HEPES pH 7.4, 150 mM NaCl, 1 mM EDTA, 0.05% Tween® 20) was used at a flow rate of 100 μl/min. The sample buffer was the system buffer. Biotinylated human soluble TWEAK (amino acids 99-249 of SEQ ID NO: 60) and biotinylated murine soluble TWEAK (amino acids 81-225 of SEQ ID NO: 61) was immobilized on different flow cells on the SA sensor at 150 RU each. The flow cell FC1 was used as a blank reference cell. Each antibody was injected into the system as an analyte at 100 nM at 100 μl/min for 2 min association time. The dissociation of the immune complexes were monitored for 5 min. The sensor surface was washed with HBS-ET for 10 seconds and regenerated using 2×2 minutes injections with 10 mM glycine pH 2.25. This procedure was done at 25° C. The kinetically rate limiting step of the complex dissociation phase in the interval [240 s-300 s] was taken to calculate the dissociation rate kd [1/s] (Biacore Evaluation Software 4.0). According to the equation t1/2 diss=ln(2)/(60×kd), the half-life of the immunocomplexes in minutes was calculated.

Assay [5] concerns the target T1, Biotinylated human soluble TWEAK (amino …). Put plainly: Biacore SPR, biotinylated human soluble TWEAK on SA sensor, antibody as analyte, 37 C.
Assay [6] deals with T2, Human recombinant soluble TWEAK (human, UniProt O43508 99-249).
T2 sequence: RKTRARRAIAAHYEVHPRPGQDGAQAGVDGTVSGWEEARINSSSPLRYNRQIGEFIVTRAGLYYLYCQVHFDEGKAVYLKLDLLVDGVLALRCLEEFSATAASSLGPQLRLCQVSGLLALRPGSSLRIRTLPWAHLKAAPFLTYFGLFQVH
The assay is described as follows: cell-based or functional assay.

Assay [7] addresses T3, human Flag-tagged soluble TWEAK (amino acids 106-249) (human, UniProt O43508 106-249).
T3 construct: N-terminal placement here is only an order of listing; not shown: Flag tag
T3 sequence: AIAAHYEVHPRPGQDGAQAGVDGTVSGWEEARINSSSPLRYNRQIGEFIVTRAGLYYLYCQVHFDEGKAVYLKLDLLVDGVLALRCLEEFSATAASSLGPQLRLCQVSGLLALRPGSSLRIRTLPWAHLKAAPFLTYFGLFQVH
The assay is described as follows: competition ELISA: antibody pre-incubated with human Flag-TWEAK, binding to coated human Fn14:Fc. The method, then:
(§1) 96-well Maxisorp® plates (Nunc) were coated with 100 μl 1 μg/ml human Fn14:Fc (extracellular domain of human Fn14 (amino acids 1-75) fused to Fc portion of human IgG1) in PBS per well for 1.5 h at room temperature and blocked with a solution of 5% FBS in PBS for 30 minutes at room temperature under shaking. […] Wells were filled with 100 μl of anti-FLAG-HRP detection antibody, diluted 1:5000 in blocking buffer, and incubated for 1 h at room temperature. After four more wash steps, the signal was developed by addition of 100 μl 3,3,5,5-Tetramethylbenzidine (TMB) solution for approximately ten minutes. The reaction was stopped by adding 100 μl of 1 N HCl, and absorbance measured at 450 nm (reference wavelength 620 nm).

Assay [8] deals with T3, human Flag-tagged soluble TWEAK (amino …). Put plainly: competition ELISA: antibody pre-incubated with human Flag-TWEAK 2.5 ng/ml, binding to coated human Fn14:Fc. The method, then: as §1
For assay [9], the target named is T2, Human recombinant soluble TWEAK. The assay is described as follows: cell-based or functional assay. The source holds these as a separate data set.

B1: Antibody 27 (antibody, V domains shown)
VH: QVQLVQSGAEVKKPGSSVKVSCKASGFDFSTYYMSWVRQAPGQGLEWMGTVYVRQGTTYYASWLNGRVTITADESTSTAYMELSSLRSEDTAVYYCARGGYNYDDAFVIWGQGTLVTVSS
VL: DIQMTQSPSSVSASVGDRVTITCQASQNIYSNLAWYQQKPGKAPKLLIYTASYLASGVPSRFSGSGSGTDYTLTISSLQPEDFATYYCQTAYYNSRPDTVAFGGGTKVEIK
notes: also called humanized 305 variant 305-LC2 / 305-HC4
For the molecule B1, the t/2 diss came out at 19 min in assay [1], 19 min in [3], 110 min in assay [4] and 147 min in assay [5]. Further, the IC50 – broadly, the midpoint of a concentration-inhibition curve – in assay [2] is 8.2 ng/mL; in assay [7] it was 2.3 ng/mL. In assay [6], the “IL8-Secretion” value stood at 197 ng/mL.

B2: Antibody 28 (antibody, V domains shown)
VH: EVQLLESGGGLVQPGGSLTLSCAASGFDFSTYYMSWVRQAPGKGLEWVSTVYVRQGTTYYASWLNGRFTISRDNSKNTLYLQMNSLRAEDTAVYYCAKGGYNYDDAFVIWGQGTLVTVSS
VL: DIQMTQSPSSVSASVGDRVTITCQASQNIYSNLAWYQQKPGKAPKLLIYTASYLASGVPSRFSGSGSGTDYTLTISSLQPEDFATYYCQTAYYNSRPDTVAFGGGTKVEIK
notes: Humanized variant of antibody 305; also called humanized 305 variant 305-LC2 / 305-HC7
Regarding B2, the t/2 diss amounted to 19 min in [1], 17 min in [3], 87 min in assay [4] and 115 min in [5]. Further, the figures for the IC50 in assay [2] and in assay [7] were 6.5 ng/mL and 1.5 ng/mL, respectively. In assay [6], the “IL8-Secretion” value amounted to 165 ng/mL.

B3: Antibody 32 (antibody, V domains shown)
VH: EVQLLESGGGLVQPGGSLRLSCAASGFDFSTYYMSWVRQAPGKGLEWVSTVYVRQGTTYYASWLNGRFTISRDNSKNTLDLQMNSLRAEDTAVYYCAKGGYNYDDAFVIWGQGTLVTVSS
VL: DIQMTQSPSTLSASVGDRVTITCQASQNIYSNLAWYQQKPGKAPKLLIYTASYLASGVPSRFSGSGSGTEFTLTISSLQPDDFATYYCQTAYYNSRPDTVAFGGGTKVEIK
notes: Humanized variant of antibody 305; also called humanized 305 variant 305-LC6 / 305-HC8
Take B3: the t/2 diss in assay [1] is 17 min; in [3] it was 20 min; in assay [4], 67 min; in assay [5] it was 50 min. The IC50 was found to be 5.4 ng/mL in assay [2] and 1.5 ng/mL in assay [7]. The “IL8-Secretion” value in [6] came to 134 ng/mL.

B4: Antibody 30 (antibody, V domains shown)
VH: EVQLLESGGGLVQPGGSLRLSCAASGFDFSTYYMSWVRQAPGKGLEWVSTVYVRQGTTYYASWLNGRFTISRDNSKNTLYLQMNSLTAEDTAVYYCAKGGYNYDDAFVIWGQGTLVTVSS
VL: DIQMTQSPSSVSASVGDRVTITCQASQNIYSNLAWYQQKPGKAPKLLIYTASYLASGVPSRFSGSGSGTDFTLTISSLQPEDFATYYCQTAYYNSRPDTVAFGGGTKVEIK
notes: Humanized variant of antibody 305; also called humanized 305 variant 305-LC1 / 305-HC10
Consider B4, for which the t/2 diss in assay [1] was 17 min; in assay [3] it was 15 min; in [4], 50 min; in [5], 45 min. For the same molecule, the IC50 in [2] worked out at 7.6 ng/mL; in assay [7], 2.3 ng/mL. Moreover, in assay [6], the “IL8-Secretion” value was 207 ng/mL.

B5: Antibody 33 (antibody, V domains shown)
VH: QVQLVQSGAEVKKPGSSVKVSCKASGFDFSTYYMSWVRQAPGQGLEWMGTVYVRQGTTYYASWLNGRVTITADESTSTAYMELSSLRSEDTAVYYCARGGYNYDDAFVIWGQGTLVTVSS
VL: AIRMTQSPSSFSASTGDRVTITCQASQNIYSNLAWYQQKPGKAPKLLIYTASYLASGVPSRFSGSGSGTDYTLTISCLQSEDFATYYCQTAYYNSRPDTVAFGGGTKVEIK
notes: Humanized variant of antibody 305; also called humanized 305 variant 305-LC4 / 305-HC4
For the molecule B5, the t/2 diss in assay [1] was found to be 19 min; in assay [3] it was 15 min; in assay [4], 127 min; in assay [5], 99 min. For the same molecule, the figures for the IC50 in assay [2] and in assay [7] were 6.7 ng/mL and 1.7 ng/mL, respectively. Moreover, the “IL8-Secretion” value in assay [6] was determined as 26 ng/mL.

B6: Antibody 31 (antibody, V domains shown)
VH: EVQLLESGGGLVQPGGSLTLSCAASGFDFSTYYMSWVRQAPGKGLEWVSTVYVRQGTTYYASWLNGRFTISRDNSKNTLYLQMNSLRAEDTAVYYCAKGGYNYDDAFVIWGQGTLVTVSS
VL: AIRMTQSPSSFSASTGDRVTITCQASQNIYSNLAWYQQKPGKAPKLLIYTASYLASGVPSRFSGSGSGTDYTLTISCLQSEDFATYYCQTAYYNSRPDTVAFGGGTKVEIK
notes: Humanized variant of antibody 305; also called humanized 305 variant 305-LC4 / 305-HC7
Turning to B6, the t/2 diss in assay [1] was 19 min; in assay [3] it was 19 min; in [4], 115 min; in [5], 151 min. Moreover, the IC50 came out at 7.1 ng/mL in [2] and 1.7 ng/mL in assay [7]. Besides, in [6], the “IL8-Secretion” value was 94 ng/mL.

B7: Antibody 29 (antibody, V domains shown)
VH: EVQLLESGGGLVQPGGSLRLSCAASGFDFSTYYMSWVRQAPGKGLEWVSTVYVRQGTTYYASWLNGRFTISRDNSKNTLDLQMNSLRAEDTAVYYCAKGGYNYDDAFVIWGQGTLVTVSS
VL: DIQMTQSPSSVSASVGDRVTITCQASQNIYSNLAWYQQKPGKAPKLLIYTASYLASGVPSRFSGSGSGTDYTLTISSLQPEDFATYYCQTAYYNSRPDTVAFGGGTKVEIK
notes: Humanized variant of antibody 305; also called humanized 305 variant 305-LC2 / 305-HC8
For the molecule B7, the t/2 diss is 22 min in [1], 21 min in assay [3], 146 min in assay [4] and 195 min in [5]. The IC50 in assay [2] amounted to 5.7 ng/mL; in assay [7], 1.8 ng/mL. Further, the “IL8-Secretion” value in assay [6] was determined as 78 ng/mL.

B8: Antibody 34 (antibody, V domains shown)
VH: EVQLLESGGGLVQPGGSLRLSCAASGFDFSTYYMSWVRQAPGKGLEWVSTVYVRQGTTYYASWLNGRFTISRDNSKNTLYLQMNSLRAEDTAVYYCAKGGYNYDDAFVIWGQGTLVTVSS
VL: AIRMTQSPSSFSASTGDRVTITCQASQNIYSNLAWYQQKPGKAPKLLIYTASYLASGVPSRFSGSGSGTDYTLTISCLQSEDFATYYCQTAYYNSRPDTVAFGGGTKVEIK
notes: Humanized variant of antibody 305; also called humanized 305 variant 305-LC4 / 305-HC2
In the case of B8, the t/2 diss in assay [1] came to 22 min; in [3], 20 min; in assay [4], 158 min; in assay [5], 185 min. For the same molecule, the values for the IC50 in assay [2] and in assay [7] were 5.9 ng/mL and 1.9 ng/mL, respectively. Besides, the “IL8-Secretion” value in assay [6] was 24 ng/mL.

B9: TW-305 (antibody, V domains shown)
VH: QEQLVESGGGLVQPGGSLTLSCKASGFDFSTYYMSWVRQAPGKGLEWIGTVYVRQGTTYYASWLNGRFTISSDNAQNTVDLKMNSLTAADTATYFCAKGGYNYDDAFVIWGPGTLVTVSF
VL: AIEMTQTPFSVSAAVGGTVTINCQASQNIYSNLAWYQQKPGQPPKLLMYTASYLASGVPSRFKGSGSRTEYTLTISGVQCADAATYYCQTAYYNSRPDTVAFGGGTEVVVK
notes: also called Antibody 305; rabbit antibody 305
With B9, the IC50 in assay [8] was 2.5 ng/mL. The “IL-8 Secretion IC50” value in assay [9] turned out to be 99 ng/mL.

B10: TW-304 (antibody, V domains shown)
VH: QSLEESGGDLVKPGASLTLTCKASGFSFSSTYYMCWVRQAPGKGLEWIGCIYVGSSGAPYYASWAKGRFTISKTSSTTVALQMTSLTPADTATYVCTRSVHFGDLWGPGTLVTVSS
VL: DVVMTQTPSPVSAAVGGTVTIKCQASQSIGNDLSWYQQKPGQRPKLLIYSVSTLASGVPSRFKGSGSGTEYSLTISDVQCADAATYYCQCIDYGNNYVGNTFGGGTEVVVK
notes: also called Antibody 304; rabbit antibody 304
In [8], B10 came in with an IC50 of 2.8 ng/mL. Moreover, in [9], the “IL-8 Secretion IC50” value came out at 109 ng/mL.

Values taken from patent US20120121583A1 (Genentech, published 2012).
